The target of the assay is AAB1/B2Fc. Description: SPR (BIAcore), Fab immobilized on Pioneer F1 chip, AAB1/B2Fc as analyte. Background: Surface plasmon resonance follows binding to a sensor surface in real time, without labels.

From EP2351583A1 come the findings set out here.

As usually defined, the Kd is the equilibrium constant for the complex coming apart.

B1: Fab fragment F200 (Fab, V domains shown)
VH: QVQLKESGPGLVAPSQSLSITCTISGFSLTDYGVHWVRQPPGKGLEWLVVIWSDGSSTYNSALKSRMTIRKDNSKSQVFLIMNSLQTDDSAMYYCARHGTYYGMTTTGDALDYWGQGTSVTVSS
VL: QIVLTQSPAIMSASLGERVTMTCTASSSVSSNYLHWYQQKPGSAPNLWIYSTSNLASGVPARFSGSGSGTSYSLTISSMEAEDAATYYCHQYLRSPPTFGGGTKLEIKR
B1 had a Kd of 0.332 nM.
